According to publication PMC11965572:
Where “and” joins values, the source holds several entries; their conditions need not be identical. Equal values may be shown once.

Target: wild-type human ACE2-Fc (human) (UniProt Q9BYF1)
Assay: SEC; protein A-purified wild-type ACE2-Fc fractionated on a Superdex 200 column

## wild-type human ACE2-Fc (from UniProt Q9BYF1 18-728) (Fc fusion)
  percent as higher oligomers: 18%
  percent as tetramers: 9%
  percent in a dimeric state: 73%
  stoichiometry N: 2 and 4
